Laboratory results as given in US20020077289A1, “Angiostatin and endostatin binding proteins and methods of use” (priority 2000, published 2002).
“Also recorded” adds a separate entry of the source. Bridges are numbered along the chain shown (N, C = ends). Where no end group is shown, it is not given here.

Assays:
rhEndostatin = molecular target: T1, rhEndostatin (Homo sapiens, UniProt P39060); test: ELISA of tropomyosin binding to rhEndostatin coated wells; settings: wells coated with 5 μg/ml rhEndostatin or BSA, detection with TM311 anti-tropomyosin
T1 construct: rhEndostatin were produced in P. pastoris and purified to homogeneity; made in house; host or cells: Pichia pastoris
T1 sequence (P39060 1572-1754 limits assumed): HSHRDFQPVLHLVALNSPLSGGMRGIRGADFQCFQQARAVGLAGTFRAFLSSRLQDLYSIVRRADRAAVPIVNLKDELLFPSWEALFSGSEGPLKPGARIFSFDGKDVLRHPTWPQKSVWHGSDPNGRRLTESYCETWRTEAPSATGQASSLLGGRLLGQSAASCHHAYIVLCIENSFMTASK
Procedure: FIG. 13 provides a graph showing that rhTM3 binds rhEndostatin in vitro. The wells of a 96-well plate were coated with either 5 micrograms/milliliter (μg/ml) of rhEndostatin (closed symbols) or BSA (open symbols) and incubated with increasing amounts of control E. coli lysate (circles) or tropomyosin expressing λ21-1 bacterial lysate (squares). The amount of tropomyosin binding to each well was determined spectrophotometrically following the addition of the TM311 anti-tropomyosin ascites fluid, alkaline phosphatase conjugated anti-mouse IgG and substrate. Error bars indicate standard deviation of the mean.
Plates were coated with 5 μg/ml of BSA or rhEndostatin and blocked. Dilutions of λ21-1 or control lysate were added and incubated for 1 hour at 37° C., followed by incubation with 1:500 diluted anti-tropomyosin TM311 ascites fluid (Sigma, St. Louis, Miss.). Following incubation in 1:5000 diluted anti-mouse IgG (H+L) conjugated to alkaline phosphatase (Promega, Madison, Wis.) wells were developed using Blue Phos Phosphatase Substrate (Kirkegaard and Perry, Gaithersburg, Md.) and the OD635 measured.
In this experiment the wells of a 96 well plate were either coated with 5 μg/ml of Endostatin protein or BSA protein. […] The wells were washed and incubated with anti-tropomyosin antibodies followed by anti-mouse IgG AP conjugated antibodies and developed using KPL Blue Phos microwell phosphatase solution. The OD635 was measured after a one hour incubation at room temperature and the results plotted in FIG. 8.
Recombinant human Endostatin protein and hTM3 were also shown to interact in a capture ELISA (FIG. 8).

[1] = molecular target: T2, rhTM3 (human tropomyosin isoform 3) (Homo sapiens, UniProt P09493); test: Surface plasmon resonance (BIAcore) binding to immobilized rhTM3
T2 construct: made in house; host or cells: E. coli BL21 (DE3), pET-21a(+)
Procedure: (A), 0, 10, 20, 40, 80 and 160 micromolar (μM) of rhEndostatin were injected at 5 microliters per minute (μl/minute) for 960 seconds through a biosensor flow cell that had been activated and blocked as a control for bulk refractive index and subsequently through a flow cell to which 3200 response units (RU) of rhTM3 had been immobilized. The binding kinetics were recorded and the differences between the two curves plotted for each rhEndostatin concentration. (B), 0, 11.5, 23 and 46 micromolar (μM) of rhAngiostatin were injected at 5 microliters per minute (μl/minute) for 900 seconds over a flow cell containing 3200 RU of rhTM3 as above. Samples were run in duplicate, the data corrected for bulk shift and the average of the 2 curves plotted. (C), Injection of 5 micromolar (μM) of rhEndostatin at 5 microliters per minute (μl/minute) for 240 seconds in the presence of 0, 6, 15, 30 and 45 micromolar (μM) of soluble rhTM3 over a flow cell containing 2000 RU of rhTM3. Samples were run in duplicate, the reference cell values subtracted and the average of each of the 2 curves plotted. The spikes in RU seen at the beginning and end of each injection are due to lag in flow caused by the rhTM3 and reference cells being non-adjacent.
Interactions between purified soluble rhEndostatin and rhTM3 were evaluated by surface plasmon resonance using the BIAcore 3000 (BiaCore, Piscataway, N.J.). The purified rhTM3 was immobilized on the flow cell of a CM-5 BIAcore biosensor chip. The running buffer was 0.01 M HEPES, pH 7.4, 0.15M NaCl and 0.005% polysorbate 20 (v/v). The competition experiments involving soluble rhTM3 were performed using PBS pH 7.4 as running buffer. All measurements were performed at 25° C. To correct for differences in bulk refraction all protein preparations were passed over an activated and blocked flow cell to which no protein had been coupled. Effects due to bulk shift were subtracted from experimental data.
Surface plasmon resonance performed using the BIAcore 3000 (BiaCore, Piscataway, N.J.) was used to assess the kinetics of rhEndostatin/rhTM3 binding. […]

HUVEC microfilaments = test: Fluorescent staining of formalin fixed endothelial cells with Alexa 488-labeled rhEndostatin; type: cell-based, human; settings: 50-fold molar excess (100 μM) of peptide; 40 μg/ml (2 μM) Alexa-rhEndostatin
Procedure: (A), HUVECs, (B), HAECs and (C), HMVECs were incubated in the presence of 40 micrograms per milliliter (μg/ml) Alexa 488-labeled rhEndostatin and photographed at 100× magnification under Alexa 488 (green) excitation wavelength. (D) and (E), HUVECs were incubated simultaneously in anti-tropomyosin TM311 ascites fluid and 40 micrograms per milliliter (μg/ml) Alexa 488-labeled rhEndostatin followed by incubation in Alexa 594 conjugated goat anti-mouse IgG (H+L). The same field was photographed under Alexa 488 (green) and Alexa 594 (red) excitation wavelengths at 100× magnification.
HUVECs were incubated in the presence of 40 micrograms per milliliter (μg/ml) Alexa 488-labeled rhEndostatin alone (A), or in the presence of a 50-fold molar excess of control peptide (B), or E37 peptide (C). Cells were photographed using the same exposure times at 100x magnification under Alexa 488 (green) excitation wavelength.
To detect the binding of Alexa-labeled rhEndostatin 1×10^4 HUVEC, HMVEC and HAECs were plated on 1.5% gelatin coated Nalge Nunc Lab Tek II chamber slides (Naperville, Ill.) and fixed in 10% neutral buffered formalin followed by a methanol wash. The chamber slides were incubated in PBS/1% calf serum containing 40 μg/ml (2 μM) of Alexa 488-labeled rhEndostatin (Narum et al., manuscript in preparation) for 1 hr at room temperature. The slides were washed in PBS, coverslips mounted using fluorescent mounting media (Kirkegaard and Perry Laboratories, Gaithersburg, Md.) and cells photographed under Alexa 488 excitation wavelength. Co-localization studies were performed as above except cells were incubated in PBS/1% calf serum containing 1:200 mouse anti-tropomyosin TM311 (Sigma, St. Louis, Miss.) and 40 μg/ml of Alexa 488-labeled rhEndostatin followed by incubation with goat anti-mouse IgG (H+L) conjugated to Alexa 594 (Molecular Probes, Eugene, Oregon). The same fields were photographed under Alexa 488 and Alexa 594 wavelengths. […]

B16-BL6 melanoma cells = test: B16-BL6 experimental metastasis assay; type: in vivo, C57BL/6J mice; settings: co-injection of 1.5 nmol rhEndostatin and up to 375 nmol control peptide; p>0.11
Procedure: C57BL/6J mice were injected via the tail vein with 5×10^4 B16-BL6 melanoma cells on day 0. On day 3, groups of five mice received daily subcutaneous doses of either buffer control, 1.5 nmol (1.5 mg/kg/day) of rhEndostatin in combination with 0, 15, 75 or 375 nmol of control or E37 peptide, or control or E37 peptide alone for eleven days. All mice were sacrificed on day 14, and the number of pulmonary surface metastases in each animal counted. Error bars indicate standard deviation of the mean.
C57BL/6J mice (n=8) were injected intravenously (i.v.) with 5×10^4 B16-BL6 cells/mouse. Three days later treatment commenced. 100 μl of citrate-phosphate buffer (66 mM Sodium Phosphate, 17 mM Citric acid, 59 mM NaCl pH 6.2) containing 1.5 nmol of rhEndostatin and 100 μl of PBS containing either 0, 15, 75 or 375 nmol of control or E37 peptide were mixed and injected subcutaneously (s.c.) daily for 11 days. All mice were then sacrificed, their lungs removed and the number of surface metastases counted. Results were analyzed for statistical significance using the 2-tailed Student's t-test.
The following experiment was conducted to determine the interaction of E37 peptide and Endostatin protein. Briefly, the B16BL6 experimental metastasis assay, as known to those of skill in the art and further described in International Patent Application number PCT/US99/11418, was performed as follows. 5×10^4 B16-BL6 cells in 200 μl of PBS were injected into C57BL/6J mice via the tail vein. Three days post injection treatment was started. The injection received by eight groups of mice were: 1) citrate phosphate/PBS buffer, 2) ^30 μg Endostatin protein (in 100 μl PBS), 3) 30 μg Endostatin protein (in 200 μl PBS), 4) 30 μg Endostatin protein plus 50 times molar excess of control peptide (in 200 μl PBS), 5) 30 μg Endostatin protein plus 250 times molar excess of control peptide (in 200 μl PBS), 6) 30 μg Endostatin protein plus 10 times molar excess of E37 peptide (in 200 μl PBS), 7) 30 μg Endostatin protein plus 50 times molar excess of E37 peptide (in 200 μl PBS), and 8) 30 μg Endostatin protein plus 250 times molar excess of E37 peptide (in 200 μl PBS). Doses were administered daily for eleven days posterior to the thoracic cavity subcutaneously. All mice were sacrificed, the lungs removed and the number of surface metastases in each animal were counted under a stereo microscope.

[2] = molecular target: recombinant human Endostatin protein (human); test: cell-based or functional assay

T2 sequence (P09493 1-284 isoform P09493-3): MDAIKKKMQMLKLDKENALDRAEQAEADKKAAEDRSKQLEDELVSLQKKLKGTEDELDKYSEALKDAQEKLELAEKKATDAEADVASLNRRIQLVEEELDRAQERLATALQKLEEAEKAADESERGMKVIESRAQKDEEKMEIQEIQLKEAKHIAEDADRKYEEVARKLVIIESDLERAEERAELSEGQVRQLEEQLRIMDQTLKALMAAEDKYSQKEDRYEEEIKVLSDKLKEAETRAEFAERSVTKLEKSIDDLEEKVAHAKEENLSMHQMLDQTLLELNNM

rhTM3: recombinant human tropomyosin isoform 3 (fibroblast tropomyosin), SEQ ID NO:119; also as λ21-1 bacterial lysate (EKVAHAKEENLSMHQMLDQTLLELNNM)
binding of tropomyosin to rhEndostatin (rhEndostatin): binds | binding of tropomyosin to rhEndostatin (rhEndostatin; listed as hTM3): higher immunoreactivity in rhEndostatin coated wells than in wells coated with BSA; also recorded: binds | binding of tropomyosin to rhEndostatin (rhEndostatin; listed as tropomyosin): considerably more tropomyosin bound | competition for binding of rhEndostatin to immobilized rhTM3 ([1]; 5 μM rhEndostatin with 0-45 μM soluble rhTM3, 2000 RU immobilized rhTM3): competed for the binding of rhEndostatin

CSNSDKPKCGGGS (disulfide 1-9 (inferred)) [control peptide, reference compound]
inhibition of binding of Alexa-labeled rhEndostatin to HUVEC microfilaments (HUVEC microfilaments): not | incidence of metastatic lesions on the lungs versus 1.5 nmol rhEndostatin alone (B16-BL6 melanoma cells): statically indistinguishable

CTHWWHKRCGGGS (disulfide 1-9) [E37 peptide (synthetic, cyclized)]
decrease in the anti-tumor activity of rhEndostatin (B16-BL6 lung metastases), 1.5 nmol rhEndostatin co-injected with 15 nmol E37 peptide [2]: 11 percent | decrease in the anti-tumor activity of rhEndostatin (B16-BL6 lung metastases), 1.5 nmol rhEndostatin co-injected with 75 nmol E37 peptide [2]: 30.5 percent | decrease in the anti-tumor activity of rhEndostatin (B16-BL6 lung metastases), 1.5 nmol rhEndostatin co-injected with 375 nmol E37 peptide [2]: 84.5 percent | inhibition of lung metastasis, 1.5 nmol rhEndostatin co-administered with a 250-fold molar excess of E37 peptide [2]: 11% | inhibition of the formation of lung metastasis (B16BL6), 30 µg Endostatin protein plus 10 fold molar excess of E37 peptide [2]: 76% | inhibition of the formation of lung metastasis (B16BL6), 30 µg Endostatin protein plus 50 fold molar excess of E37 peptide [2]: 61% | inhibition of the formation of lung metastasis (B16BL6), 30 µg Endostatin protein plus 250 fold molar excess of E37 peptide [2]: 21%

B1: rhAngiostatin K1-3: recombinant human Angiostatin kringles 1-3 produced in P. pastoris, used as negative control (protein)
chain: VYLSECKTGNGKNYRGTMSKTKNGITCQKWSSTSPHRPRFSPATHPSEGLEENYCRNPDNDPQGPWCYTTDPEKRYDYCDILECEEECMHCSGENYDGKISKTMSGLECQAWDSQSPHAHGYIPSKFPNKNLKKNYCRNPDRELRPWCFTTDPNKRWELCDIPRCTTPPPSSGPTYQCLKGTGENYRGNVAVTVSGHTCQHWSAQTPHTHNRTPENFPCKNLDENYCRNPDGKRAPWCHTTNSQVRWEYCKIPSCDSSPV
specific binding to immobilized rhTM3 ([1]; negative control, similar concentrations (0-46 μM) passed over the rhTM3 chip): no evidence of specific binding
